The values that follow come from publication doi:10.1101/2025.08.15.670450 (2025).

The target of experiment [1] is GDM_VEGFA_54. Kind of experiment: BLI. For orientation: Biolayer interferometry detects binding as a change in optical thickness at a sensor tip.
The target in the next experiment is VEGF-A_Binder_13. Kind of experiment: BLI.
Experiment [2] has as its target VEGF-A Binder 13. Put plainly: BLI; KD1.
The target of experiment [3] is VEGF-A Binder 13. Kind of experiment: BLI; KD2, second site.
In experiment [4] the target is GDM_VEGFA_54. Kind of experiment: reported in original publication.

B1: Vascular Endothelial Growth Factor A (VEGF-A) (ligand)
chain: MTDRQTDTAPSPSYHLLPGRRRTVDAAASRGQGPEPAPGGGVEGVGARGVALKLFVQLLGCSRFGGAVVRAGEAEPSGAARSASSGREEPQPEEGEEEEEKEEERGPQWRLGARKPGSWTGEAAVCADSAPAARAPQALARASGRGGRVARRGAEESGPPHSPSRRGSASRAGPGRASETMNFLLSWVHWSLALLLYLHHAKWSQAAPMAEGGGQNHHEVVKFMDVYQRSYCHPIETLVDIFQEYPDEIEYIFKPSCVPLMRCGGCCNDEGLECVPTEESNITMQIMRIKPHQGQHIGEMSFLQHNKCECRPKKDRARQEKKSVRGKGKGQKRKRKKSRYKSWSVPCGPCSERRKHLFVQDPQTCKCSCKNTDSRCKARQLELNERTCRCDKPRR
For B1, the Kd in the experiment with GDM_VEGFA_54 [1] amounted to 10.1 nM; in the experiment with VEGF-A_Binder_13, 13.4 nM; with VEGF-A Binder 13 [2], 26.4 nM; with VEGF-A Binder 13 [3], 86.4 nM; with GDM_VEGFA_54 [4] it was 0.48 nM.

As usually defined, the Kd is the constant that tells how readily two partners part at equilibrium. A lower Kd goes with higher affinity.
